We go through four molecules from patent US20120329997A1 (Hoffmann-La Roche, published 2012).

Assay [1] deals with T1, full-length wildtype CSF-1R (wt CSF-1R) (human, UniProt P07333 20-972). The experiment in a line: cell-based or functional assay.
Assay [2] deals with mutant CSF-1R L301S Y969F (human, UniProt P07333 20-972). The experiment in a line: cell-based or functional assay.
For assay [3], the target named is CSF-1R ECD (R&D-Systems 329-MR or in-house subcloned pCMV-presS-HisAvitag-hCSF-1R-ECD) (human) (UniProt P07333). The experiment in a line: SPR (BIACORE A100), 35 C, antibody captured, CSF-1R ECD in solution. (In general: SPR reads the build-up and loss of mass on a sensor chip optically.)
Assay [4] addresses huCSF-1R-huFc chimera (soluble extracellular domain) (human) (UniProt P07333). The experiment in a line: competition ELISA, inhibition of CSF-1 binding to immobilized huCSF-1R-huFc.
Assay [5] has as its target CSF-1R ECD (R&D-Systems 329-MR or in-house subcloned pCMV-presS-HisAvitag-hCSF-1R-ECD) (human) (UniProt P07333). The experiment in a line: SPR cross-competition, 25 C; second antibody on CSF-1R held by captured Antibody 1; competitor <CSF-1R>7H5.2G10 (Antibody 1).
Assay [6] shares this target. The experiment in a line: SPR cross-competition, 25 C; second antibody on CSF-1R held by captured Antibody 1; competitor <CSF-1R>10A4.1G11 (Antibody 1).
Assay [7] shares this target. Kind of assay: SPR cross-competition, 25 C; second antibody on CSF-1R held by captured Antibody 1; competitor SC-02, clone 2-4A5 (Antibody 1).
Assay [8] addresses T1, full-length wildtype CSF-1R (wt CSF-1R). The experiment in a line: cell-based or functional assay. This is another data set of the same source.
For assay [9] the target is unchanged. The experiment in a line: cell-based or functional assay. This is another data set of the same source.
Assay [10] shares this target. Kind of assay: cell-based or functional assay. The source holds these as a separate data set.
The target in assay [11] is T2, CSF-1R ECD (R&D-Systems 329-MR or in-house subcloned pCMV-presS-HisAvitag-hCSF-1R-ECD) (human, UniProt P07333 20-517).
T2 construct: also called CSF-1R (R&D-Systems Cat. No. 329-MR)
The experiment in a line: SPR (BIACORE A100), 35 C, antibody captured, CSF-1R ECD in solution. The method, then: For affinity measurements 36 μg/ml anti mouse Fcγ antibodies (from goat, Jackson Immuno Reasearch JIR115-005-071) have been coupled to the chip surface for capturing the antibodies against CSF-1R. CSF-1R ECD (R&D-Systems 329-MR or in-house subcloned pCMV-presS-H isAvitag-hCSF-1R-ECD were added in various concentrations in solution. Association was measured by an CSF-1R-injection of 1.5 minutes at 35° C.; dissociation was measured by washing the chip surface with buffer for 10 minutes at 35° C. Anti CSF-IR SC-02, clone 2-4A5 (Santa Cruz Biotechnology, US; see also Sherr, C. J., et al., Cell 41 (1985) 665-676), which inhibits the ligand-receptor interaction, was used as reference control.

For assay [12], the target named is T3, huCSF-1R-huFc chimera (soluble extracellular domain) (human, UniProt P07333 20-517).
T3 construct: also called huCSF-1R ECDhuFc chimera; not shown: human Fc
The experiment in a line: competition ELISA, inhibition of CSF-1 binding to immobilized huCSF-1R-huFc. The method, then:
At the beginning, plates were coated with […] goat F(ab′)₂ biotinylated anti Fcγ (Jackson ImmunoResearch., Cat. No. 109-006-170) for 1 hour (h).
Thereafter the wells were blocked with PBS supplemented with 0.2% Tween®-20 and 2% BSA (Roche Diagnostics GmbH, DE) for 0.5 h. 75 ng/ml of huCSF-1R-huFc chimera (soluble extracellular domain) was immobilized to plate for 1 h. Then dilutions of purified antibodies in PBS/0.05% Tween20/0.5% BSA were incubated for 1 h. After adding a mixture of 3 ng/ml CSF-1 (Biomol, DE, Cat. No. 60530), 50 ng/ml biotinylated anti CSF-1 clone BAF216 (R&D Systems, UK) and 1:5000 diluted streptavidin HRP (Roche Diagnostics GmbH, DE, Cat. No. 11089153001) for 1 h the plates were washed 6 times with PBST. Anti CSF-IR SC-02, clone 2-4A5 (Santa Cruz Biotechnology, US), which inhibits the ligand-receptor interaction, was used as positive control. Plates were developed with freshly prepared BM Blue® POD substrate solution (BM Blue®: 3,3″-5,5″-Tetramethylbenzidine, Roche Diagnostics GmbH, DE, Cat. No. 11484281001) for 30 minutes at RT. Absorbance was measured at 370 nm. […]
(In an ELISA, binding on a coated surface is turned into a signal by an enzyme label.)

Where two headings read alike, the source gives them in different places.

Sequence of CSF-1R ECD (R&D-Systems 329-MR or in-house subcloned pCMV-presS-HisAvitag-hCSF-1R-ECD) (human) (P07333 20-517 limits assumed): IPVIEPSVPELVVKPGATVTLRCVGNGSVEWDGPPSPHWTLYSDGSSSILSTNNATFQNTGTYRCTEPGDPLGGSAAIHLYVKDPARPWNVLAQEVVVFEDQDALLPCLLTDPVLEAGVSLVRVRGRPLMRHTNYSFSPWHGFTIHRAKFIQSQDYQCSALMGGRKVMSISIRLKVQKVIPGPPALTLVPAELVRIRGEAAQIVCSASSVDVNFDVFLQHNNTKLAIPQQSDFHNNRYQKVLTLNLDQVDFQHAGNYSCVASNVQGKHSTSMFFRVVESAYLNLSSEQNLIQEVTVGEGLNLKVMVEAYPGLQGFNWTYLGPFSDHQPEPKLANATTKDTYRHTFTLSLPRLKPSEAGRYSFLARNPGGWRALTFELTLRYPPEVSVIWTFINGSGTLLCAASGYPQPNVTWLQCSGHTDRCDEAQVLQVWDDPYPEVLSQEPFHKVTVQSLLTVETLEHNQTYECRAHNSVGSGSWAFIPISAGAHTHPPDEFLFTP
T2 sequence (P07333 20-517 limits assumed): as above
T3 sequence (P07333 20-517, change not shown): as the sequence (P07333 20-517 limits assumed) above
T1 sequence (P07333 20-972 limits assumed): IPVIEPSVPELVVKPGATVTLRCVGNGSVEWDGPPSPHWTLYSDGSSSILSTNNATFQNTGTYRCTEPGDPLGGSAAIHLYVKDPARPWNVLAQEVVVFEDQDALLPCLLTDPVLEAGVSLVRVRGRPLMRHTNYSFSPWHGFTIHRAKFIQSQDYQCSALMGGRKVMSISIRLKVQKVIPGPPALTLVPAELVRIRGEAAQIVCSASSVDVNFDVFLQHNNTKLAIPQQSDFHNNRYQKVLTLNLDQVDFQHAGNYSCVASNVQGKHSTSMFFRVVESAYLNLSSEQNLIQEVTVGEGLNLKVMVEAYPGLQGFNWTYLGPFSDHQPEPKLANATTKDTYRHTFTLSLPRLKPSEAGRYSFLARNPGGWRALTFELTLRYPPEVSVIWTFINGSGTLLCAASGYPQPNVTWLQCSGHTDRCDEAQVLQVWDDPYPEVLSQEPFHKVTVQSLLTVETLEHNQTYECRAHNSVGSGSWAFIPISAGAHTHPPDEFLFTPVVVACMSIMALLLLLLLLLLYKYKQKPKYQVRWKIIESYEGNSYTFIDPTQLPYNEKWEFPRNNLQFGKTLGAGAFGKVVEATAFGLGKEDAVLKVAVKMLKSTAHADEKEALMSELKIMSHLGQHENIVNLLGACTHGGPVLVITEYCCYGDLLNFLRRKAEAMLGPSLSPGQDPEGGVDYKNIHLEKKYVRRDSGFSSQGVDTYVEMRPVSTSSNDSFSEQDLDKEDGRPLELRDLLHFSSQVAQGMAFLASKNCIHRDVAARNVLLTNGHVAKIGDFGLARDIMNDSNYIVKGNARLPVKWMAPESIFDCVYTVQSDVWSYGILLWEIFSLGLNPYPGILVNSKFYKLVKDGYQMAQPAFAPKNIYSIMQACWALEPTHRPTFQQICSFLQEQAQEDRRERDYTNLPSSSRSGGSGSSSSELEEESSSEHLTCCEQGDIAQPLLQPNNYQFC
Sequence of mutant CSF-1R L301S Y969F (P07333 20-972 L301S/Y969F limits assumed): as the sequence (P07333 20-972 limits assumed) above, with L282S, Y950F counted along it
Sequence of huCSF-1R-huFc chimera (soluble extracellular domain) (human) (P07333 20-517, change not shown): as the sequence (P07333 20-517 limits assumed) above

Usually Kd stands for a measure of binding affinity in units of concentration. A high value points to lower affinity. The koff is the rate constant with which the complex falls apart. A high value points to a short-lived complex. One may read the kon as a measure of how fast the partners come together. Read a high kon as faster complex formation. In general, IC50 refers to the concentration at which inhibition is half-maximal. Low readings indicate greater potency, high ones weaker potency. In [1], “Anti CSF-1R SC-02, clone 2-4A5 (Santa Cruz Biotechnology, US) (antibody)” returned a % inhibition 10 ug/ml antibody concentration, BeWo tumor cells in 3D culture of 40%; a % survival, NIH3T Cells expressing wtCSF-1R, 10 ug/ml antibody of 62%; an IC50 CSF-1R Phosphorylation of 0.412 µg/mL; an IC50 [nM], inhibition of the survival of monocytes of 2.4 nM. Further, the % survival, NIH3T Cells expressing Mutant CSF-1R, 10 ug/ml antibody in assay [2] came to 66%. In [3], the equilibrium dissociation constant (Kd) was 2.73 nM, the dissociation rate constant (koff) was found to be 0.00139 s⁻¹, the kon was found to be 509000 M⁻¹ s⁻¹ and the t1/2 came to 8.31 min. For the same molecule, in assay [4], the half-maximal inhibitory concentration (IC50) was determined as 0.0309 µg/mL. The percentage (%) of expected binding response in assay [5] came out at 42%. Moreover, the percentage (%) of expected binding response in [6] was found to be 24%. In assay [7], the percentage (%) of expected binding response is -2%.

B1: <CSF-1R>10A4.1G11 (antibody, V domains shown)
VH: EVQLQQFGTELVKPGASVKISCKASGYTFTDYNMDWVKQSHGKSLEWIGDINPNYDSTTYNQKFKGKATLTVDKSSSTAYMELRSLTSEDTAVYYCARWRFFAMDYWGQGTSVTVSS
VL: DIQMTQSSSSFSVSLGDRVTITCKASEDIYNRLAWYQQKPGNAPRLLISGASSLETGVPSRFSGSGSGKDYTLSITSLQTEDVATYYCQQYWSIPWTFGGGTKLEIKR
notes: Mouse monoclonal antibody from a hybridoma
As for B1, the “IC50 CSF-1R Phosphorylation” value in assay [8] is 0.0154 µg/mL. For the same molecule, the “% survival, NIH3T Cells expressing wtCSF-1R, 10 ug/ml antibody” value in [9] was 3%. For the same molecule, the “% survival, NIH3T Cells expressing Mutant CSF-1R, 10 ug/ml antibody” value in assay [2] is 144%. The “IC50 [nM], inhibition of the survival of monocytes” value in assay [10] worked out at 0.4 nM. Besides, in assay [11], binding was characterised by a dissociation constant (Kd) of 1.77 nM, the koff was 0.0013 s⁻¹, the association rate constant (kon) turned out to be 740000 M⁻¹ s⁻¹ and the t1/2 came out at 8.89 min. For the same molecule, in [12], the IC50 is 0.0634 µg/mL.

B2: <CSF-1R>7H5.2G10 (antibody, V domains shown)
VH: EVQLQQSGPELVKPGASMKISCKASGYSFTDYTVNWVKQSHGENLDWIGLIIPYNGGTSYNHNFRGKATLTVDKSSSTAYMELLSLTSEDSAVYYCTRGGGDFTTGYTMDYWGHGTSVTVSS
VL: DIQMTQSSSYLSVSLGGTVTINCKASDHIHDWLAWYQQQPGNAPRLLISGATSLETGVPSRFSGGGSGKDYSLIITSLQTEDFATYYCQQYWSIPWTFGGGTKLEIKR
notes: Mouse monoclonal antibody from a hybridoma (NMRI mice); also called deposited antibody DSM ACC2922
Regarding B2, the “IC50 CSF-1R Phosphorylation” value in [8] was 0.049 µg/mL. Also, the “% survival, NIH3T Cells expressing wtCSF-1R, 10 ug/ml antibody” value in assay [9] amounted to 2%. For the same molecule, in assay [2], the “% survival, NIH3T Cells expressing Mutant CSF-1R, 10 ug/ml antibody” value stood at 112%. Further, the “IC50 [nM], inhibition of the survival of monocytes” value in [10] is 1 nM. In [11], this molecule gave a Kd of 0.54 nM, a koff of 0.00038 s⁻¹, a kon of 700000 M⁻¹ s⁻¹ and a t1/2 of 30.4 min. This molecule registered an IC50 in assay [12] of 0.0269 µg/mL.

B3: <CSF-1R>6G4.1C8 (antibody, V domains shown)
VH: EVQLQQSGPELVKPGASMKISCKASGYSFTDYTVNWVKQSHGENLDWIGLIIPYNGGTSYNHNFRGKATLTVDKSSSTAYMELLSLTSDDSAVYYCTRGGGDFTTGYTMDYWGQGTSVTVSS
VL: DIQMTQSSSYLSVSLGGTVTINCKASDHIHNWLAWYQQQPGNAPRLLISGATSLETGVPSRFSGGGSGKDYSLIITSLQTEDVATYYCQQYWSIPWTFGGGTKLEIKR
notes: as for B1
In the case of B3, in assay [8], the “IC50 CSF-1R Phosphorylation” value was 0.0826 µg/mL. Besides, the “% survival, NIH3T Cells expressing wtCSF-1R, 10 ug/ml antibody” value in assay [9] is 3%. Moreover, in assay [2], the “% survival, NIH3T Cells expressing Mutant CSF-1R, 10 ug/ml antibody” value turned out to be 91%. In [11], this molecule returned a Kd of 0.52 nM, a koff of 0.00029 s⁻¹, a kon of 570000 M⁻¹ s⁻¹ and a t1/2 of 39.4 min. The same molecule registered a concentration for half-maximal inhibition (IC50) in assay [12] of 0.0212 µg/mL.
